# In the supplement of paper PMC10567573:
# B1: CDC25B (parent)
# chain: ELKTFRLKTRSWAGERSRRELCSR
# B2: CDS2 (parent)
# chain: IHSIALSTFASLIGPFGGFFASGF
# Variants of: B1
# Test: protein stability index of a GFP-peptide fusion (GPS, HEK-293T) (PSI 1-6); higher = more stable
# Conditions: c terminus: a fixed tail appended
# 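Further: lentivirally expressed fusions sorted by FACS into six bins by GFP to DsRed ratio, PSI derived from sequencing read proportions per bin multiplied by bin number.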
row,Variant,protein stability index
1,ELKTFRLKTRSWAGERSRRELCSG [R24G],2.59
2,ELKTFRLKTRSWAGERSRRELCSV [R24V],2.7
3,ELKTFRLKTRSWAGERSRRELCSN [R24N],3.38
4,ELKTFRLKTRSWAGERSRRELCSP [R24P],2.82
5,ELKTFRLKTRSWAGERSRRELCSQ [R24Q],3.23
6,ELKTFRLKTRSWAGERSRRELCSI [R24I],2.86
7,ELKTFRLKTRSWAGERSRRELCSW [R24W],2.58
8,ELKTFRLKTRSWAGERSRRELCSM [R24M],2.34
9,ELKTFRLKTRSWAGERSRRELCSL [R24L],3
10,ELKTFRLKTRSWAGERSRRELCST [R24T],2.73
11,ELKTFRLKTRSWAGERSRRELCSY [R24Y],2.33
12,ELKTFRLKTRSWAGERSRRELCSK [R24K],3.38
13,ELKTFRLKTRSWAGERSRRELCSS [R24S],3.28
14,ELKTFRLKTRSWAGERSRRELCSH [R24H],3.3

# Variants of: B2
# Test: as above
# Conditions: c terminus: a fixed tail appended
row,Variant,protein stability index
1,IHSIALSTFASEIGPFGGFFASGF [L12E],2.51
2,IHSIALSTFASGIGPFGGFFASGF [L12G],3.36
3,IHSIALSTFASDIGPFGGFFASGF [L12D],3.44
4,IHSIALSTFASCIGPFGGFFASGF [L12C],2.74
5,IHSIALSTFASAIGPFGGFFASGF [L12A],2.82
6,IHSIALSTFASFIGPFGGFFASGF [L12F],4.01
7,IHSIALGTFASLIGPFGGFFASGF [S7G],3.09
8,IHSIALVTFASLIGPFGGFFASGF [S7V],3
9,IHSIALWTFASLIGPFGGFFASGF [S7W],3.82
10,IHSIALPTFASLIGPFGGFFASGF [S7P],2.88
11,IHSIALNTFASLIGPFGGFFASGF [S7N],2.5
12,IHSIALHTFASLIGPFGGFFASGF [S7H],3.45
13,IHSIALATFASLIGPFGGFFASGF [S7A],2.22
14,IHSIALTTFASLIGPFGGFFASGF [S7T],2.71
15,IHSIALITFASLIGPFGGFFASGF [S7I],2.94
16,IHSIALYTFASLIGPFGGFFASGF [S7Y],2.65
17,IHSIALRTFASLIGPFGGFFASGF [S7R],3.4
18,IHSIALFTFASLIGPFGGFFASGF [S7F],3.48
19,IHSIALMTFASLIGPFGGFFASGF [S7M],3.09
20,IHSIALQTFASLIGPFGGFFASGF [S7Q],2.64
21,IHSIALCTFASLIGPFGGFFASGF [S7C],1.83
22,IHSIALSPFASLIGPFGGFFASGF [T8P],3.52
23,IHSIALSNFASLIGPFGGFFASGF [T8N],3.16
24,IHSIALSQFASLIGPFGGFFASGF [T8Q],1.86
25,IHSIALSMFASLIGPFGGFFASGF [T8M],2.49
26,IHSIALSIFASLIGPFGGFFASGF [T8I],1.82
27,IHSIALSAFASLIGPFGGFFASGF [T8A],3.48

row,Variant,protein stability index
1,IHSIALSWFASLIGPFGGFFASGF [T8W],2.58
2,IHSIALSRFASLIGPFGGFFASGF [T8R],3.47
3,IHSIALSDFASLIGPFGGFFASGF [T8D],2.14
4,IHSIALSHFASLIGPFGGFFASGF [T8H],3.82
5,IHSIALSEFASLIGPFGGFFASGF [T8E],2.67
6,IHSIALSVFASLIGPFGGFFASGF [T8V],2.86
7,IHSIALSGFASLIGPFGGFFASGF [T8G],2.63
8,IHSIHLSTFASLIGPFGGFFASGF [A5H],2.81
9,IHSIKLSTFASLIGPFGGFFASGF [A5K],3.47
10,IHSILLSTFASLIGPFGGFFASGF [A5L],2.15
11,IHSIILSTFASLIGPFGGFFASGF [A5I],3.04
12,IHSIDLSTFASLIGPFGGFFASGF [A5D],2.51
13,IHSIGLSTFASLIGPFGGFFASGF [A5G],2.93
14,IHSINLSTFASLIGPFGGFFASGF [A5N],4.35
15,IHSIWLSTFASLIGPFGGFFASGF [A5W],2.77
16,IHSIMLSTFASLIGPFGGFFASGF [A5M],2.14
17,IHSIVLSTFASLIGPFGGFFASGF [A5V],1.84
18,IHSISLSTFASLIGPFGGFFASGF [A5S],3.12
19,IHSIQLSTFASLIGPFGGFFASGF [A5Q],3.47
20,IHSIYLSTFASLIGPFGGFFASGF [A5Y],2.88
21,IHSIELSTFASLIGPFGGFFASGF [A5E],3.98
22,IHSIFLSTFASLIGPFGGFFASGF [A5F],3.17
23,IHSIRLSTFASLIGPFGGFFASGF [A5R],3.68
24,IHSITLSTFASLIGPFGGFFASGF [A5T],2.36
25,IHSIPLSTFASLIGPFGGFFASGF [A5P],2.54
26,IHSICLSTFASLIGPFGGFFASGF [A5C],3.88
27,IMSIALSTFASLIGPFGGFFASGF [H2M],2.79

row,Variant,protein stability index
1,IPSIALSTFASLIGPFGGFFASGF [H2P],1.95
2,IASIALSTFASLIGPFGGFFASGF [H2A],2.61
3,ISSIALSTFASLIGPFGGFFASGF [H2S],2.03
4,IQSIALSTFASLIGPFGGFFASGF [H2Q],2.43
5,IGSIALSTFASLIGPFGGFFASGF [H2G],3.52
6,IESIALSTFASLIGPFGGFFASGF [H2E],1.8
7,IYSIALSTFASLIGPFGGFFASGF [H2Y],3.65
8,IDSIALSTFASLIGPFGGFFASGF [H2D],2.57
9,IISIALSTFASLIGPFGGFFASGF [H2I],2.41
10,IKSIALSTFASLIGPFGGFFASGF [H2K],3.27
11,ICSIALSTFASLIGPFGGFFASGF [H2C],4.54
12,ITSIALSTFASLIGPFGGFFASGF [H2T],3.98
13,IWSIALSTFASLIGPFGGFFASGF [H2W],2
14,IHSAALSTFASLIGPFGGFFASGF [I4A],2.44
15,IHSSALSTFASLIGPFGGFFASGF [I4S],3.51
16,IHSPALSTFASLIGPFGGFFASGF [I4P],3.8
17,IHSLALSTFASLIGPFGGFFASGF [I4L],1.57
18,IHSTALSTFASLIGPFGGFFASGF [I4T],3.82
19,IHSRALSTFASLIGPFGGFFASGF [I4R],3.04
20,IHSWALSTFASLIGPFGGFFASGF [I4W],2.65
21,IHSHALSTFASLIGPFGGFFASGF [I4H],2.91
22,IHSYALSTFASLIGPFGGFFASGF [I4Y],2.14
23,IHSMALSTFASLIGPFGGFFASGF [I4M],2.86
24,IHSEALSTFASLIGPFGGFFASGF [I4E],2.14
25,IHSIALSTRASLIGPFGGFFASGF [F9R],3.28
26,IHSIALSTDASLIGPFGGFFASGF [F9D],2.15
